Assay results taken from publication PMC4666391 (Nucleic Acids Research, 2015).

Assays:
[1] = biological target: T1, pre-RC (MCM2–7 double-hexamer on DNA) in the presence of DDK (S. cerevisiae, UniProt P29469 1-868; P24279 1-971; P30665 1-933; P29496 1-775; P53091 1-1017; P38132 …, phosphorylated by DDK, sites not printed | phosphorylated by DDK, sites not printed | phosphorylated by DDK, sites not given); assay: SEC; gel-filtration based pre-RC assay: Sld3 or Sld2 (40 nM) added alone to pre-RC with DDK (5 nM); signal corrected for Mcm2 and compared with the reaction without DDK; conditions: both partners purified
T1 construct: Mcm2, subunit of MCM2–7, S. cerevisiae; Mcm3, subunit of MCM2–7, S. cerevisiae; Mcm4, subunit of MCM2–7, S. cerevisiae; Mcm5, subunit of MCM2–7, S. cerevisiae; Mcm6, subunit of MCM2–7, S. cerevisiae; Mcm7, subunit of MCM2–7, S. cerevisiae; DDK was added together with the factors, so the extent of phosphorylation at early times is not known; also called DDK-phosphorylated pre-RC; source: assembled …

[2] = biological target: T2, pre-RC (MCM2–7 double-hexamer loaded on pUC19-ARS1 DNA) (S. cerevisiae, UniProt P29469 1-868; P24279 1-971; P30665 1-933; P29496 1-775; P53091 1-1017; P38132 …); assay: SEC; gel-filtration based pre-RC assay: Sld2 and Sld3 added together to pre-RC, no DDK; 40 nM each for 1 min, titrations (Sld2 60 and 90 nM; Sld3 90 nM) and time course 0.5–30 min, over which binding of both decreased; conditions: both partners purified
T2 construct: Mcm2, subunit of MCM2–7, S. cerevisiae; Mcm3, subunit of MCM2–7, S. cerevisiae; Mcm4, subunit of MCM2–7, S. cerevisiae; Mcm5, subunit of MCM2–7, S. cerevisiae; Mcm6, subunit of MCM2–7, S. cerevisiae; Mcm7, subunit of MCM2–7, S. cerevisiae; Loaded around double-stranded plasmid DNA; also called pre-replicative complex; source: assembled in solution from purified ORC, Cdc6, Cdt1 and MCM2–7 (40 nM …)

B1: Sld2 (purified) (natural protein, S. cerevisiae, UniProt P34252 1-453, looked up)
chain: MYSFELDKLKIELKTWEHDFIDKNKREPTRDDIKSLRTVRQMYKQYSTLKKKQSLQRQKVDTQESVELPAHKKDHDEVVEIGPTPQVYGKAISIFDMNLSPIKPIYMTFTNNIDVNNDNSKTISNESSPRKTILLKSSPADRTLVAEPISSVKRQLNFQMLNASSTRTPTSSPCKNRNGKLVEIKKCSPTINPPLESGKPSGYYGPNSPLKLDEENIHLNISLNSSTKRRLQIAYPSLQKTPSKDQADISTSFSPSPLIRRPLTKSLIELAREHTEIVKEFGVLQEEDIEEEEEGEEGENGYDEKNHEDDFGLEDELIRPKVVKDIFQEDDDNDDSQAREDTFIRKRPKRRKVIRRLRDNDPETETAGFERDVHKELVKLKRRKVAEFLGSTSQISDTEFEHDPEASSGVVSSEQKPTAKRKGRKKYNLVSNNFRRLKLPKKNRFSNGRWGRR
notes: Sld2, S. cerevisiae; it may or may not be the same preparation as GST-Sld2; also called purified Sld2; source: purified
**Q.** For B1, which “fold increase of binding with DDK, against the pre-RC without DDK” value [1] is on record?
**A.** ~2 fold

**Q.** And the “fold reduction of binding when Sld3 is added, against Sld2 alone” value [2]?
**A.** ~4 fold
